Reference: patent US7396816B2, “Low-molecular weight peptides inhibiting ion channel activity” (Pharmadesign, Inc., priority 2003, dated 2008)
Where no end group is shown, it is not given here.

Key:
[1] = target: T1, Ca^2+ dependant BigK channel derived from heart muscle (myocardial SA channel) (Gallus gallus, UniProt Q8AYS8); assay: single channel current recording by patch clamp (inside-out excised patch, back-fill); assay type: cell-based, chicken; conditions: for inhibiting activity: primary screening, channel's open probability (Po); for level of inhibiting activity compared with GsMTx-4: suggested from time taken for inhibition; for inhibition of wild-type SA channel: wild-type myocardial SA channel, FIG. 13
T1 construct: expressed in transfected cells; host or cells: CHO cells force-expressing the channel cDNA, or the endogenous channel of chicken ventricular muscle
T1 sequence (Q8AYS8 1-1195 isoform Q8AYS8-3): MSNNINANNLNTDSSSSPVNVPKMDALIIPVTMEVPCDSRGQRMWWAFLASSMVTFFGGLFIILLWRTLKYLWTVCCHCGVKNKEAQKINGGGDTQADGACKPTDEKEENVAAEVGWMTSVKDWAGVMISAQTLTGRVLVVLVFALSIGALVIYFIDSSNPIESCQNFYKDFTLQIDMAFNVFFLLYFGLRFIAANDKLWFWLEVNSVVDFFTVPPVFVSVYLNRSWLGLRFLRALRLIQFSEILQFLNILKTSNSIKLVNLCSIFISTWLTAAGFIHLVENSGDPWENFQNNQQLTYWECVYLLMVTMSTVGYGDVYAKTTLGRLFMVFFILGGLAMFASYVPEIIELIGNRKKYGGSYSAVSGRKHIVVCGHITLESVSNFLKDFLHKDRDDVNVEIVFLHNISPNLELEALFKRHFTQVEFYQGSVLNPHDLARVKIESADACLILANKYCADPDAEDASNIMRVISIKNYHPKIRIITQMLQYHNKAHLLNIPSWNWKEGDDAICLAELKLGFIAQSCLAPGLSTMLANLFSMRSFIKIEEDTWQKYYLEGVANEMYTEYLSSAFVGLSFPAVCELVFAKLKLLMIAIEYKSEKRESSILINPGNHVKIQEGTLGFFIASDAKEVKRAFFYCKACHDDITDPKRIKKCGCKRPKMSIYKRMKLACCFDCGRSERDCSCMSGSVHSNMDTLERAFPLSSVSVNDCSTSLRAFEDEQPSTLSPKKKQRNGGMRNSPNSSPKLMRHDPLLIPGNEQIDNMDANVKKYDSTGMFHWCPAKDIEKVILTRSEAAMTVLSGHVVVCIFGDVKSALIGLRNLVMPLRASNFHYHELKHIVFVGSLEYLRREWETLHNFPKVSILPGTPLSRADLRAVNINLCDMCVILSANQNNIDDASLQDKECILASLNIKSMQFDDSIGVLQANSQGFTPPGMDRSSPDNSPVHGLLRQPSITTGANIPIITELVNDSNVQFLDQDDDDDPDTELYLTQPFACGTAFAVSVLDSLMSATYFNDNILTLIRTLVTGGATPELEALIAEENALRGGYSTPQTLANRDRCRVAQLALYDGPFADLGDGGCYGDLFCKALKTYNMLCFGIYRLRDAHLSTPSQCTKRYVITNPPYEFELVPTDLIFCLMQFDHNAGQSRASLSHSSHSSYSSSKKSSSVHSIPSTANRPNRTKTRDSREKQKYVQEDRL
Method: Activity assay of the peptides was carried out by the most reliable single channel current recording method using the patch clamp method. As the subject of the assay, Ca^2+ dependant BigK channel (Kawakubo et. Am J Physiol, 276: H1827.1999) derived from heart muscle was employed. By applying this channel to the expressed ventricle muscle of chicken or to CHO cells force-expressing the cDNA of this channel with the cell-attached patch clamp method, an inside-out excised patch was formed, and single channel current recordings were taken under a fixed membrane potential. Assuming that the designed synthetic peptide blocks the channel extracellularly the same as GsMTx-4, the space a fixed distance above the glass pipette used for recording was filled with the peptide of a known concentration beforehand, and administration was carried out by back-fill which utilizes diffusion to reach the channel, With this method, the concentration of the peptide inside the pipette reaches equilibrium 15 to 20 minutes after the start of diffusion, and so the dissociation constant of the peptide can be estimated from the inhibition ratio at 20 minutes and onwards. Or, the relative inhibition of the peptide can be estimated from the time taken for inhibition. If the exact dissociation constant of the peptide is to be calculated, it is necessary to prepare an outside-out excised patch, take single channel current recordings, analyze the inhibition effects of various peptides with different concentration, and obtain a dose-inhibition curve; however, as this method requires special technology and as this is the primary screening of the various designed synthetic peptides, the assay method combining the inside-out excised patch and back-fill described above was used to make a rough estimate of the inhibition effects of the peptides. […] Concerning the scale of evaluation, the channel's open probability (Po, indicated in percentage) was used, and the level of inhibition was expressed by the inhibition ratio (percentage) with the control (prior to the administration of the peptide) as the standard, or by the time taken for inhibition.

STREX-deletion-mutant = target: T2, STREX-deletion-mutant (Gallus gallus, UniProt Q8AYS8, DEL657-715); assay: single channel current recording, specificity to mechano-sensitive channel; assay type: cell-based; conditions: mutant lacking the 59 amino acid STREX sequence, FIG. 13
T2 construct: expressed in transfected cells; host or cells: CHO cells (inferred: a deletion mutant must be expressed heterologously, and CHO is the only expression host named for this channel)
T2 sequence (Q8AYS8 with tags, fused parts or gaps isoform Q8AYS8-3 DEL657-715): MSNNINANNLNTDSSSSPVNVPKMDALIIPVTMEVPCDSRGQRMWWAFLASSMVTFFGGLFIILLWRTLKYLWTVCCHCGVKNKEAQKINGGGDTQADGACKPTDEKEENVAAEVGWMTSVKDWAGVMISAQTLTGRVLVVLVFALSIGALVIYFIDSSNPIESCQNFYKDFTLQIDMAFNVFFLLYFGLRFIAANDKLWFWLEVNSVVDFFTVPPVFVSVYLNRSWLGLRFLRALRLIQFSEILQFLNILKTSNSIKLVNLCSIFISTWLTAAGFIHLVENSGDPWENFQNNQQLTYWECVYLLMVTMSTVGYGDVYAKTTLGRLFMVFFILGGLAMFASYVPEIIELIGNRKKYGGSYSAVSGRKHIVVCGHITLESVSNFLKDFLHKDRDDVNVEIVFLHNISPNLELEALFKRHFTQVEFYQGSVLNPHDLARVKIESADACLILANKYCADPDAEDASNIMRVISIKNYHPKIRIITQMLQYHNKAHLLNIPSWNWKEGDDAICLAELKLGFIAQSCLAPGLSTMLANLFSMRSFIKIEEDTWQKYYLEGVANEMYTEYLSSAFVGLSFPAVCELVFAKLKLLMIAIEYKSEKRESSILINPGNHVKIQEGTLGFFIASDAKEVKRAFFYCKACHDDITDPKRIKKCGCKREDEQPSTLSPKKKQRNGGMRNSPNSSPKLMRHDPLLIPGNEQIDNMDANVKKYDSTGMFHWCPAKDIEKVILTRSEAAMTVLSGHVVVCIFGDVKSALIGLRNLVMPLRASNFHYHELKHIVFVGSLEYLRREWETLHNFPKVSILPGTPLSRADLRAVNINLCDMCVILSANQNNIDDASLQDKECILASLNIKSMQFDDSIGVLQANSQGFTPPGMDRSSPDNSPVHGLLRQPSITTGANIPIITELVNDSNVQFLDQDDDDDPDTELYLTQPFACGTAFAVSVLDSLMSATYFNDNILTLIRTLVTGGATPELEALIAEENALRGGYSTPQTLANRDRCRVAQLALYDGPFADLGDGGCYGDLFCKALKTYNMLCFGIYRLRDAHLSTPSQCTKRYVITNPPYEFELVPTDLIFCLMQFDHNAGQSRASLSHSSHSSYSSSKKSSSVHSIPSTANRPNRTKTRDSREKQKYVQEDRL
Method: Activity assay of the peptides was carried out by the most reliable single channel current recording method using the patch clamp method. As the subject of the assay, Ca^2+ dependant BigK channel (Kawakubo et. Am J Physiol, 276: H1827.1999) derived from heart muscle was employed. By applying this channel to the expressed ventricle muscle of chicken or to CHO cells force-expressing the cDNA of this channel with the cell-attached patch clamp method, an inside-out excised patch was formed, and single channel current recordings were taken under a fixed membrane potential. […] If the exact dissociation constant of the peptide is to be calculated, it is necessary to prepare an outside-out excised patch, take single channel current recordings, analyze the inhibition effects of various peptides with different concentration, and obtain a dose-inhibition curve; however, as this method requires special technology and as this is the primary screening of the various designed synthetic peptides, the assay method combining the inside-out excised patch and back-fill described above was used to make a rough estimate of the inhibition effects of the peptides. […]

Row | Substance | inhibiting activity [1] | inhibition (channel's open probability Po vs control) ([1]; after 8 minutes) | level of inhibiting activity compared with GsMTx-4 [1] | inhibition of wild-type SA channel [1] | inhibition of STREX-deletion-mutant (STREX-deletion-mutant) | further results
1 | TVP005: designed peptide from GsMTx-4 comprising loops 2 and 3 (WKCNPNDDKAARPKLKC) | displayed inhibiting activity |  |  |  |  | inhibition (channel's open probability Po vs control) ([1]; after 20 minutes): about 60%
2 | TVP004: designed peptide from GsMTx-4 comprising loop 3 (CARPKLKC) | displayed inhibiting activity | about 60% |  |  |  | inhibition (channel's open probability Po vs control) ([1]; 10 μM, after 16 minutes): 95%
3 | TVP019: mutation in which the 7th K from the N-terminus of TVP004 had been substituted by A (CARPKLAC) | found to show inhibiting activity |  |  |  |  | inhibition (channel's open probability Po vs control) ([1]; after 14 minutes): approximately 80%
4 | TVP017: mutation in which the 3rd R from the N-terminus of TVP004 had been substituted by A (CAAPKLKC) | found to show inhibiting activity |  | higher level than |  |  | inhibition (channel's open probability Po vs control) ([1]; after 6 minutes): 100%; level of inhibition compared with TVP003 ([1]; time taken for inhibition): even higher level of inhibition than TVP003
5 | WKCNPNDDKC [TVP003] | displayed inhibiting activity | 100% | the same as or higher than | inhibit the wild-type SA channel | do not inhibit the STREX-deletion-mutant hardly at all | dissociation constant ([1]; estimated from inhibition ratio): μM order or lower
6 | GsMTx-4 (GCLEFWWKCNPNDDKCCRPKLKCSKLFKLCNFSSG; disulfide (positions not given here); ends not checked; listed as Grammostola spatulata) [reference compound] |  |  |  | inhibit the wild-type SA channel | do not inhibit the STREX-deletion-mutant hardly at all | 
